The target in the data set is TDP-43 RRM1 (human, UniProt Q13148 101-191). The experiment in a line: X-ray crystallography; crystals at pH 5.5, PEG 3350, ammonium acetate; Co-crystallization, protein:DNA 1:1.2; protein in 50 mM HEPES pH 7.5, 100 mM NaCl, 10 mM bME; hanging drop at room temperature (stated for RRM1/DNA). (TG)15 Kd. The settings on record: protein: recombinant; tags: N-terminal His; single strand; 8 and 9 nt modelled in the two RRM1 complexes.
Sequence of TDP-43 RRM1 (Q13148 101-191): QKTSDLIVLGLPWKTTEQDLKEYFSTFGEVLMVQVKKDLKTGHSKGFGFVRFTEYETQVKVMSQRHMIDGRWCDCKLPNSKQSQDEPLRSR

As for GTTGAGCGTT (ssDNA, none) [10-nt ssDNA], the binding result is given as “binds”.

For the origin of these results see article PMC4756693, “Structural analysis of disease-related TDP-43 D169G mutation: linking enhanced stability and caspase cleavage efficiency to protein accumulation”.
